Test results from paper doi:10.1101/2021.03.15.435484, “Functional development of a V3-specific broadly neutralizing antibody isolated from a case of HIV superinfection” (bioRxiv, 2021).

Biological target: BG505.SOSIP.664 Env trimer (heterologous clade A native-like trimer containing the N332 glycan) (HIV-1 clade A, isolate BG505 …, stabilised)
Test: cell-based or functional assay

B1: QA013.2 CDRH3 point mutant antibody D106V (mature VH D106V paired with the mature light chain) (antibody, V domains shown)
VH: DIRIAESGGGLVQPGESLRLACEIIELGFRRAWTTWVRQAPGKGLEWVADINEDGSEKKYGPSVTGRFTISRDNGKNLVFLQMNSLRVEDTATYYCAREAYHLVYVDRIPRGNWFDPWGPGTLVTVSS
VL: QSVLTQPPSVSGAPGQRVVISCTGSRSNIGAGYDVHWYQQSPGKVPRIIIYGSNSRSSGVPARFSGSKSGTSASLAITGLQAEDEADYYCQSYDTTLTASVFGGGTKVTVL
average fold increase in neutralisation IC50 across all tested pseudoviruses relative to the mature bnAb (TZM-bl assay): 40 fold
